Measured values: PMC2686265, “ATP and MO25α Regulate the Conformational State of the STRADα Pseudokinase and Activation of the LKB1 Tumour Suppressor” (PLoS Biology, 2009)
One block for each molecule: values may come before it.

Key:
[1] = biological target: T1, untagged STRADα (residues 59–431) (human, UniProt Q7RTN6 59-431); assay: SPR; BIAcore T100, MO25α amine-coupled to CM5 chip, STRADα injected (5 µM to 0.3 nM), 25°C, 50 mM Tris pH 7.8, 50 mM NaCl, 270 mM sucrose, 1 mM DTT, 0.005% P20, 0.1 mg/ml BSA; without ATP; Kd = kd/ka; settings: both partners purified
T1 construct: STRADα, human, residues 59–431; also called STRADα lacking the His tag
T1 sequence (looked up): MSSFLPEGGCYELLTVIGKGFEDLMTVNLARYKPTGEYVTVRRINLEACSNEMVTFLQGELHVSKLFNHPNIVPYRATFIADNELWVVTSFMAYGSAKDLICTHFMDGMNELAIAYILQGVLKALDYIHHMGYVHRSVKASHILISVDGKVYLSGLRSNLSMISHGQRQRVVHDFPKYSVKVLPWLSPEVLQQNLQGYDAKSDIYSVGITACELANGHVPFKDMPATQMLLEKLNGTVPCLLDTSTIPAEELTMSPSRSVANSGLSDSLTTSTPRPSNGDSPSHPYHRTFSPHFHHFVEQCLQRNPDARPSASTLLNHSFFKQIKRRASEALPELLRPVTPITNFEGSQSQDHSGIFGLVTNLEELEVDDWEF

MO25α (M260A) = biological target: T2, MO25α (M260A) (Homo sapiens, UniProt Q7RTN6+Q9Y376, M260A); assay: SPR BIAcore binding of STRADα to immobilised MO25α; settings: + ATP + Mg2+
T2 construct: wild-type and mutant forms of STRADα (residues 54–431) and MO25α (residues 1–341) were expressed individually as GST fusion proteins in E. coli; GST (cleaved yes); made in house; host or cells: E. coli
T2 sequence (Q9Y376 1-341 M260A): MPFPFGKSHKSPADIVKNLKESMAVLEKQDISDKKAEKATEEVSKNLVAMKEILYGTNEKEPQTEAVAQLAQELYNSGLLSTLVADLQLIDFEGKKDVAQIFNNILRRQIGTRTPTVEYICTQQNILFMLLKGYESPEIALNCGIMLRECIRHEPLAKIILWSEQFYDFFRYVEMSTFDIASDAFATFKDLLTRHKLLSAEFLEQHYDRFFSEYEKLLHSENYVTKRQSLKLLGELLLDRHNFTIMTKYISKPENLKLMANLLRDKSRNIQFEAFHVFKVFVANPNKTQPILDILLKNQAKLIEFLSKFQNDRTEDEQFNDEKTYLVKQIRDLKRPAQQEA
T2 sequence (Q7RTN6 59-431): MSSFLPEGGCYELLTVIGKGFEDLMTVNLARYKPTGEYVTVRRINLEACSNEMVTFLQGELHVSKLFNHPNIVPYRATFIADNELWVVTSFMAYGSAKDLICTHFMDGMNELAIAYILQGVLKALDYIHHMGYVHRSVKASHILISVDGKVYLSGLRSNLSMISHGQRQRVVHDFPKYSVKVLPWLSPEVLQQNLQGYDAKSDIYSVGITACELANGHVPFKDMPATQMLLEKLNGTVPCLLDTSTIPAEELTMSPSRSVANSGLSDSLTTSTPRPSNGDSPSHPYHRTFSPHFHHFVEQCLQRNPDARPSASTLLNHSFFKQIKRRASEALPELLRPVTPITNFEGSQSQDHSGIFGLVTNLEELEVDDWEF
Experimental: (§1) SPR measurements were performed using a BIAcore T100 instrument. Wild-type and mutant forms of MO25α were immobilized on a CM5 sensor chip using standard amine-coupling chemistry, and 10 mM HBS (pH 7.4) was used as the running buffer. The carboxymethyl dextran surface was activated with a 7-min injection of a 1∶1 ratio of 0.4 M 1-ethyl-3-(3-dimethylaminopropyl) carbodiimide hydrochloride (EDC)/0.1 M N-hydroxy succinimide (NHS). MO25α (5–7 µM) was coupled to the surface with a 1-min injection of protein diluted in 10 mM sodium acetate (pH 5.5). Remaining activated groups were blocked with a 7-min injection of 1 M ethanolamine (pH 8.5). MO25α was immobilised on three flow cells of a CM5 chip at densities 1,700–2,500 RU performed at 25°C, leaving one flow cell as a reference to subtract any possible nonspecific binding.
(§2) STRADα was prepared in running buffer containing 50 mM Tris (pH 7.8), 50 mM NaCl, 270 mM sucrose, 1 mM DTT, 0.005% P20, and 0.1 mg/ml BSA in the presence/absence of 100 µM ATP and 1 mM MgCl2, and injected over all four surfaces at nine concentrations of a 3-fold concentration series (5 µM to […]). Each concentration was injected in duplicate over all surfaces. Association was measured for 60 s at a flow rate of 50 µl/min, and dissociation was measured for 3 min. STRADα dissociated completely from the MO25α surfaces, thus eliminating the need for a regeneration step.
(§3) Data were analysed using Scrubber 2 (BioLogic Software) and CLAMP software. Data were double referenced to the reference surface to subtract any possible nonspecific binding and to the blank buffer injections to subtract drift of the target from surface. Data were fitted to a 1∶1 or 2∶1 binding site model where appropriate. Kinetic association (k a) and dissociation rate (k d) constants were separately determined from the BIAcore sensorgrams, and equilibrium dissociation constants (K d) were calculated as: K d1 = k d1/k a1 and K d2 = k d2/k a2. Equilibrium constants were also independently calculated from a saturation binding curve, by fitting the measured response (R) from specific binding to the following equation: R = (R max1[STRAD]/([STRAD]+K d1))+(R max2[STRAD]/([STRAD]+K d2)), where R max1 and R max2 are the relative maximal changes in response for sites 1 and 2, respectively, and K d1 and K d2 are the equilibrium dissociation constants for sites 1 and 2, respectively. Dose-response curves for calculating the Hill slope (H) of the data were fitted with the following equation: R = minimum+(maximum−minimum)/(1+10^((logEC50−[STRAD])×H)) using GraphPad-PRISM software.

MO25α (R227A) = biological target: T3, MO25α (R227A) (Homo sapiens, UniProt Q7RTN6+Q9Y376, R227A); assay: SPR BIAcore binding of STRADα to immobilised MO25α; settings: + ATP + Mg2+
T3 construct: wild-type and mutant forms of STRADα (residues 54–431) and MO25α (residues 1–341) were expressed individually as GST fusion proteins in E. coli; GST (cleaved yes); made in house; host or cells: E. coli
T3 sequence (Q9Y376 1-341 R227A): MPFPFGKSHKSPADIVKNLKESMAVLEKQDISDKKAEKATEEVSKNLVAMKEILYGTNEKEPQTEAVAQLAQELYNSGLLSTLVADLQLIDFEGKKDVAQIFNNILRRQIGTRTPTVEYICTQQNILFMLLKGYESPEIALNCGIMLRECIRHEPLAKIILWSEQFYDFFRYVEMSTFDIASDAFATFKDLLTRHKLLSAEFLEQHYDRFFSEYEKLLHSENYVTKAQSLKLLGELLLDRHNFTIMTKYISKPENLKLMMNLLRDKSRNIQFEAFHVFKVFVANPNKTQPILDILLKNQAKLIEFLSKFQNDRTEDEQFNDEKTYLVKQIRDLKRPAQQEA
T3 sequence (Q7RTN6 59-431): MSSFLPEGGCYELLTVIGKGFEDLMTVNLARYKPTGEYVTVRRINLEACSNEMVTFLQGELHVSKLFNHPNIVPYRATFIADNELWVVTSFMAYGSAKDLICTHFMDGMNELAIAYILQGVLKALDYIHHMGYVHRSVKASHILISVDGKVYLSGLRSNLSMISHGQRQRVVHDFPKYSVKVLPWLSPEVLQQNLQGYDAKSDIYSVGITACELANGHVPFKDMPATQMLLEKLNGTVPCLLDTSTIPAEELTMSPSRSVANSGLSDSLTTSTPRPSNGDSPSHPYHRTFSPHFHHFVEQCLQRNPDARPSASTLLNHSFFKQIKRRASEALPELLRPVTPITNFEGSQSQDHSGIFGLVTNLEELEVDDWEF
Experimental: as §1, §2, §3

MO25α (WT) = biological target: T4, MO25α (WT) (Homo sapiens, UniProt Q7RTN6+Q9Y376); assay: SPR BIAcore binding of STRADα to immobilised MO25α; settings: + ATP + Mg2+
T4 construct: wild-type and mutant forms of STRADα (residues 54–431) and MO25α (residues 1–341) were expressed individually as GST fusion proteins in E. coli; GST (cleaved yes); made in house; host or cells: E. coli (STRADα: BL21(DE3)pLysS, co-expressed with MO25α and then separated from it)
T4 sequence (Q9Y376 1-341): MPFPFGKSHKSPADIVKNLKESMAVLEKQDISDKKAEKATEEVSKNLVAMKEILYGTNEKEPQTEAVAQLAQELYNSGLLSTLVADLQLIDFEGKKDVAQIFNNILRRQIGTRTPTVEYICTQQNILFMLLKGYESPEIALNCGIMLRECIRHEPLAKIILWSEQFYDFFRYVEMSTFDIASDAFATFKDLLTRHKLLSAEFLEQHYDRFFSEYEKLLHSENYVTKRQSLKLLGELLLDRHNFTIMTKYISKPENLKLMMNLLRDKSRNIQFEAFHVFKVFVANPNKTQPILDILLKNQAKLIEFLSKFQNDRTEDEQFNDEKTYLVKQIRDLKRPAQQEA
T4 sequence (Q7RTN6 59-431): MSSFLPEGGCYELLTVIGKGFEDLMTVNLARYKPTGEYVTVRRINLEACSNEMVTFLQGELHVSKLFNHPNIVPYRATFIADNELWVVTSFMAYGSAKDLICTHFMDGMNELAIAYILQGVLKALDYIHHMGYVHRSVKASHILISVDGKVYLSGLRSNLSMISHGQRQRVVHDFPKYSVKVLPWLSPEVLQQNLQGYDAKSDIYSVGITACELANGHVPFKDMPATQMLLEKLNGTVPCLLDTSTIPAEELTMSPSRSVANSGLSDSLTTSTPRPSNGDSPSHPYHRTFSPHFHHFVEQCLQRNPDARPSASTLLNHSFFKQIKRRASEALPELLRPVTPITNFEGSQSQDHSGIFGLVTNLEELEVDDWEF
Experimental: as §1, §2, §3

Kd [1]: 3.8 µM
B1: MO25α (WT) (residues 1–341) (natural protein, human, UniProt Q9Y376 1-341, looked up)
chain: MPFPFGKSHKSPADIVKNLKESMAVLEKQDISDKKAEKATEEVSKNLVAMKEILYGTNEKEPQTEAVAQLAQELYNSGLLSTLVADLQLIDFEGKKDVAQIFNNILRRQIGTRTPTVEYICTQQNILFMLLKGYESPEIALNCGIMLRECIRHEPLAKIILWSEQFYDFFRYVEMSTFDIASDAFATFKDLLTRHKLLSAEFLEQHYDRFFSEYEKLLHSENYVTKRQSLKLLGELLLDRHNFTIMTKYISKPENLKLMMNLLRDKSRNIQFEAFHVFKVFVANPNKTQPILDILLKNQAKLIEFLSKFQNDRTEDEQFNDEKTYLVKQIRDLKRPAQQEA
notes: MO25α, human, residues 1–341 (full length); also called MO25α (WT, wild type); wild-type MO25α; source: E. coli, expressed individually as GST fusion, purified on glutathione-Sepharose, eluted with PreScission protease

binding result [1]: binds
B2: MO25α (M260A) (residues 1–341) (natural protein, human, UniProt Q9Y376 1-341, looked up)
chain: MPFPFGKSHKSPADIVKNLKESMAVLEKQDISDKKAEKATEEVSKNLVAMKEILYGTNEKEPQTEAVAQLAQELYNSGLLSTLVADLQLIDFEGKKDVAQIFNNILRRQIGTRTPTVEYICTQQNILFMLLKGYESPEIALNCGIMLRECIRHEPLAKIILWSEQFYDFFRYVEMSTFDIASDAFATFKDLLTRHKLLSAEFLEQHYDRFFSEYEKLLHSENYVTKRQSLKLLGELLLDRHNFTIMTKYISKPENLKLMANLLRDKSRNIQFEAFHVFKVFVANPNKTQPILDILLKNQAKLIEFLSKFQNDRTEDEQFNDEKTYLVKQIRDLKRPAQQEA
notes: MO25α, human, residues 1–341 (full length), M260A; source: E. coli, expressed individually as GST fusion, purified on glutathione-Sepharose, eluted with PreScission protease

kd1 (MO25α (M260A)): 0.77 (4.6 × 10−3) s−1
kd2 (MO25α (M260A)): 0.11 (5.3 × 10−4) s−1
kd1 (MO25α (R227A)): 1.61 (7.0 × 10−3) s−1
kd1 (MO25α (WT)): 0.55 (3.8 × 10−3) s−1
kd2 (MO25α (WT)): 0.08 (4.8 × 10−4) s−1
B3: His-STRADα: STRADα (residues 59–431) with N-terminal 6-His tag, SPR analyte (protein)
chain: MSSFLPEGGCYELLTVIGKGFEDLMTVNLARYKPTGEYVTVRRINLEACSNEMVTFLQGELHVSKLFNHPNIVPYRATFIADNELWVVTSFMAYGSAKDLICTHFMDGMNELAIAYILQGVLKALDYIHHMGYVHRSVKASHILISVDGKVYLSGLRSNLSMISHGQRQRVVHDFPKYSVKVLPWLSPEVLQQNLQGYDAKSDIYSVGITACELANGHVPFKDMPATQMLLEKLNGTVPCLLDTSTIPAEELTMSPSRSVANSGLSDSLTTSTPRPSNGDSPSHPYHRTFSPHFHHFVEQCLQRNPDARPSASTLLNHSFFKQIKRRASEALPELLRPVTPITNFEGSQSQDHSGIFGLVTNLEELEVDDWEF
modifications: lysines chemically methylated in the 2.35 Å crystal form only; left off: His6 with TEV site (…), N-terminal, kept
notes: STRADα (residues 59–431) with N-terminal 6-His tag, SPR analyte
